In US11833164B2, “Methods of treating Fabry disease in patients having a mutation in the GLA gene” (Amicus Therapeutics, Inc., priority 2019, dated 2023):

B1: L166Q (protein)
chain: MQLRNPELHLGCALALRFLALVSWDIPGARALDNGLARTPTMGWLHWERFMCNLDCQEEPDSCISEKLFMEMAELMVSEGWKDAGYEYLCIDDCWMAPQRDSEGRLQADPQRFPHGIRQLANYVHSKGLKLGIYADVGNKTCAGFPGSFGYYDIDAQTFADWGVDQLKFDGCYCDSLENLADGYKHMSLALNRTGRSIVYSCEWPLYMWPFQKPNYTEIRQYCNHWRNFADIDDSWKSIKSILDWTSFNQERIVDVAGPGGWNDPDMLVIGNFGLSWNQQVTQMALWAIMAAPLFMSNDLRHISPQAKALLQDKDVIAINQDPLGKQGYQLRQGDNFEVWERPLSGLAWAVAMINRQEIGGPRSYTIAVASLGKGVACNPACFITQLLPVKRKLGFYEWTSRLRSHINPTGTVLLQLENTMQMSLKDLL
B2: G171V (protein)
chain: MQLRNPELHLGCALALRFLALVSWDIPGARALDNGLARTPTMGWLHWERFMCNLDCQEEPDSCISEKLFMEMAELMVSEGWKDAGYEYLCIDDCWMAPQRDSEGRLQADPQRFPHGIRQLANYVHSKGLKLGIYADVGNKTCAGFPGSFGYYDIDAQTFADWGVDLLKFDVCYCDSLENLADGYKHMSLALNRTGRSIVYSCEWPLYMWPFQKPNYTEIRQYCNHWRNFADIDDSWKSIKSILDWTSFNQERIVDVAGPGGWNDPDMLVIGNFGLSWNQQVTQMALWAIMAAPLFMSNDLRHISPQAKALLQDKDVIAINQDPLGKQGYQLRQGDNFEVWERPLSGLAWAVAMINRQEIGGPRSYTIAVASLGKGVACNPACFITQLLPVKRKLGFYEWTSRLRSHINPTGTVLLQLENTMQMSLKDLL
B3: L167I (protein)
chain: MQLRNPELHLGCALALRFLALVSWDIPGARALDNGLARTPTMGWLHWERFMCNLDCQEEPDSCISEKLFMEMAELMVSEGWKDAGYEYLCIDDCWMAPQRDSEGRLQADPQRFPHGIRQLANYVHSKGLKLGIYADVGNKTCAGFPGSFGYYDIDAQTFADWGVDLIKFDGCYCDSLENLADGYKHMSLALNRTGRSIVYSCEWPLYMWPFQKPNYTEIRQYCNHWRNFADIDDSWKSIKSILDWTSFNQERIVDVAGPGGWNDPDMLVIGNFGLSWNQQVTQMALWAIMAAPLFMSNDLRHISPQAKALLQDKDVIAINQDPLGKQGYQLRQGDNFEVWERPLSGLAWAVAMINRQEIGGPRSYTIAVASLGKGVACNPACFITQLLPVKRKLGFYEWTSRLRSHINPTGTVLLQLENTMQMSLKDLL
B4: G171A (protein)
chain: MQLRNPELHLGCALALRFLALVSWDIPGARALDNGLARTPTMGWLHWERFMCNLDCQEEPDSCISEKLFMEMAELMVSEGWKDAGYEYLCIDDCWMAPQRDSEGRLQADPQRFPHGIRQLANYVHSKGLKLGIYADVGNKTCAGFPGSFGYYDIDAQTFADWGVDLLKFDACYCDSLENLADGYKHMSLALNRTGRSIVYSCEWPLYMWPFQKPNYTEIRQYCNHWRNFADIDDSWKSIKSILDWTSFNQERIVDVAGPGGWNDPDMLVIGNFGLSWNQQVTQMALWAIMAAPLFMSNDLRHISPQAKALLQDKDVIAINQDPLGKQGYQLRQGDNFEVWERPLSGLAWAVAMINRQEIGGPRSYTIAVASLGKGVACNPACFITQLLPVKRKLGFYEWTSRLRSHINPTGTVLLQLENTMQMSLKDLL
B5: F169V (protein)
chain: MQLRNPELHLGCALALRFLALVSWDIPGARALDNGLARTPTMGWLHWERFMCNLDCQEEPDSCISEKLFMEMAELMVSEGWKDAGYEYLCIDDCWMAPQRDSEGRLQADPQRFPHGIRQLANYVHSKGLKLGIYADVGNKTCAGFPGSFGYYDIDAQTFADWGVDLLKVDGCYCDSLENLADGYKHMSLALNRTGRSIVYSCEWPLYMWPFQKPNYTEIRQYCNHWRNFADIDDSWKSIKSILDWTSFNQERIVDVAGPGGWNDPDMLVIGNFGLSWNQQVTQMALWAIMAAPLFMSNDLRHISPQAKALLQDKDVIAINQDPLGKQGYQLRQGDNFEVWERPLSGLAWAVAMINRQEIGGPRSYTIAVASLGKGVACNPACFITQLLPVKRKLGFYEWTSRLRSHINPTGTVLLQLENTMQMSLKDLL
B6: F169Y (protein)
chain: MQLRNPELHLGCALALRFLALVSWDIPGARALDNGLARTPTMGWLHWERFMCNLDCQEEPDSCISEKLFMEMAELMVSEGWKDAGYEYLCIDDCWMAPQRDSEGRLQADPQRFPHGIRQLANYVHSKGLKLGIYADVGNKTCAGFPGSFGYYDIDAQTFADWGVDLLKYDGCYCDSLENLADGYKHMSLALNRTGRSIVYSCEWPLYMWPFQKPNYTEIRQYCNHWRNFADIDDSWKSIKSILDWTSFNQERIVDVAGPGGWNDPDMLVIGNFGLSWNQQVTQMALWAIMAAPLFMSNDLRHISPQAKALLQDKDVIAINQDPLGKQGYQLRQGDNFEVWERPLSGLAWAVAMINRQEIGGPRSYTIAVASLGKGVACNPACFITQLLPVKRKLGFYEWTSRLRSHINPTGTVLLQLENTMQMSLKDLL
B7: F169C (protein)
chain: MQLRNPELHLGCALALRFLALVSWDIPGARALDNGLARTPTMGWLHWERFMCNLDCQEEPDSCISEKLFMEMAELMVSEGWKDAGYEYLCIDDCWMAPQRDSEGRLQADPQRFPHGIRQLANYVHSKGLKLGIYADVGNKTCAGFPGSFGYYDIDAQTFADWGVDLLKCDGCYCDSLENLADGYKHMSLALNRTGRSIVYSCEWPLYMWPFQKPNYTEIRQYCNHWRNFADIDDSWKSIKSILDWTSFNQERIVDVAGPGGWNDPDMLVIGNFGLSWNQQVTQMALWAIMAAPLFMSNDLRHISPQAKALLQDKDVIAINQDPLGKQGYQLRQGDNFEVWERPLSGLAWAVAMINRQEIGGPRSYTIAVASLGKGVACNPACFITQLLPVKRKLGFYEWTSRLRSHINPTGTVLLQLENTMQMSLKDLL
B8: F169L (protein)
chain: MQLRNPELHLGCALALRFLALVSWDIPGARALDNGLARTPTMGWLHWERFMCNLDCQEEPDSCISEKLFMEMAELMVSEGWKDAGYEYLCIDDCWMAPQRDSEGRLQADPQRFPHGIRQLANYVHSKGLKLGIYADVGNKTCAGFPGSFGYYDIDAQTFADWGVDLLKLDGCYCDSLENLADGYKHMSLALNRTGRSIVYSCEWPLYMWPFQKPNYTEIRQYCNHWRNFADIDDSWKSIKSILDWTSFNQERIVDVAGPGGWNDPDMLVIGNFGLSWNQQVTQMALWAIMAAPLFMSNDLRHISPQAKALLQDKDVIAINQDPLGKQGYQLRQGDNFEVWERPLSGLAWAVAMINRQEIGGPRSYTIAVASLGKGVACNPACFITQLLPVKRKLGFYEWTSRLRSHINPTGTVLLQLENTMQMSLKDLL

Test system: mutant form of α-Gal A expressed in HEK-293 cells
Assay: HEK assay (GLP HEK / Migalastat Amenability Assay): α-Gal A activity in lysates of transiently transfected HEK-293 cells incubated with or without 10 μM migalastat
Format: cell-based, human
Settings: for Absolute increase (% WT): 10 μM migalastat versus baseline; for Relative increase: 10 μM migalastat α-Gal A activity relative to baseline; for 10 μM migalastat α-Gal A activity (% WT): 5 days; for 10 μM migalastat α-Gal A activity (% WT) / Baseline α-Gal A activity (% WT): percentage of baseline wild-type α-Gal A activity; for 10 μM migalastat α-Gal A activity (% WT) / Baseline α-Gal A activity (% WT) / Baseline α-Gal A activity / 10 μM migalastat α-Gal A activity: mean ± SEM; for Baseline α-Gal A activity (% WT): absence of migalastat; for Baseline α-Gal A activity / 10 μM migalastat α-Gal A activity: lysates of HEK-293 cells transfected with the mutant form; for Baseline α-Gal A activity: incubated 5 days in the absence of migalastat; for 10 μM migalastat α-Gal A activity: incubated 5 days with 10 μM migalastat
How it was run: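 Activity reported as 4-MU released (nmol/mg/hr), mean±SEM, from lysates of transiently transfected HEK-293 cells expressing mutant α-Gal A, cultured with or without 10 μM migalastat.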

Row | Molecule | Absolute increase (% WT) | Relative increase | 10 μM migalastat α-Gal A activity (% WT) | Baseline α-Gal A activity (% WT) | Baseline α-Gal A activity [nmol/mg/h] | 10 μM migalastat α-Gal A activity [nmol/mg/h]
1 | B1 | 29.2 | 2.6 | 47.6 ± 1.9 | 18.4 ± 1.2 | 5656 ± 325 | 14720 ± 616
2 | B2 | 6.4 | 3.6 | 9.2 ± 0.9 | 2.8 ± 0.2 | 856 ± 62 | 3111 ± 411
3 | B3 | 26.1 | 1.6 | 72.9 ± 2.7 | 46.8 ± 2.2 | 14763 ± 942 | 22948 ± 1321
4 | B4 | 26.4 | 1.4 | 84 ± 5.7 | 57.6 ± 2.8 | 19081 ± 1801 | 27514 ± 2486
5 | B5 | 42.8 | 5.6 | 53 ± 2.1 | 10.2 ± 0.9 | 2870 ± 239 | 16145 ± 1680
6 | B6 | 30.2 | 1.6 | 75.5 ± 3.6 | 45.3 ± 2.8 | 14358 ± 1768 | 23459 ± 2391
7 | B7 | 26.9 | 2.4 | 44.9 ± 2.3 | 18.1 ± 2 | 6861 ± 977 | 16396 ± 1516
8 | B8 | 34.5 | 1.7 | 82.3 ± 3.2 | 47.8 ± 2.9 | 15588 ± 1463 | 26527 ± 1806
